Assay results reported in paper PMC3791464 (eLife, 2013).

Columns and labels:
[1] = target: Drosophila ORC1–5 (ORC lacking Orc6), purified, 6×His-Orc1 and MBP–Orc4 (Drosophila melanogaster) (UniProt O16810); assay: fluorescence polarisation; fluorescence anisotropy, apparent Kd; 30 nM Orc6 N-terminally labelled with Alexa Fluor 488, ORC1–5 in twofold dilutions from 1 µM to 122 pM; 50 mM Tris HCl pH 7.8, 300 mM KCl, 5% glycerol, 1 mM DTT, 0.1 mg/ml BSA; 1 hr on ice; single-site fit with ligand depletion
[2] = target: T1, Drosophila Orc1 in untagged recombinant ORC (Drosophila melanogaster, UniProt O16810 1-924); assay: SEC; analytical gel filtration of purified, co-expressed untagged Drosophila ORC on a Superose 6 column; elutes as a hexamer of ~390 kDa; conditions: both partners purified
T1 construct: Drosophila Orc1; source: High5 cells co-infected with six baculoviruses, co-purified (Ni, amylose, TEV, gel filtration); not shown: 6×His, N-terminal, cleaved
T1 sequence (looked up): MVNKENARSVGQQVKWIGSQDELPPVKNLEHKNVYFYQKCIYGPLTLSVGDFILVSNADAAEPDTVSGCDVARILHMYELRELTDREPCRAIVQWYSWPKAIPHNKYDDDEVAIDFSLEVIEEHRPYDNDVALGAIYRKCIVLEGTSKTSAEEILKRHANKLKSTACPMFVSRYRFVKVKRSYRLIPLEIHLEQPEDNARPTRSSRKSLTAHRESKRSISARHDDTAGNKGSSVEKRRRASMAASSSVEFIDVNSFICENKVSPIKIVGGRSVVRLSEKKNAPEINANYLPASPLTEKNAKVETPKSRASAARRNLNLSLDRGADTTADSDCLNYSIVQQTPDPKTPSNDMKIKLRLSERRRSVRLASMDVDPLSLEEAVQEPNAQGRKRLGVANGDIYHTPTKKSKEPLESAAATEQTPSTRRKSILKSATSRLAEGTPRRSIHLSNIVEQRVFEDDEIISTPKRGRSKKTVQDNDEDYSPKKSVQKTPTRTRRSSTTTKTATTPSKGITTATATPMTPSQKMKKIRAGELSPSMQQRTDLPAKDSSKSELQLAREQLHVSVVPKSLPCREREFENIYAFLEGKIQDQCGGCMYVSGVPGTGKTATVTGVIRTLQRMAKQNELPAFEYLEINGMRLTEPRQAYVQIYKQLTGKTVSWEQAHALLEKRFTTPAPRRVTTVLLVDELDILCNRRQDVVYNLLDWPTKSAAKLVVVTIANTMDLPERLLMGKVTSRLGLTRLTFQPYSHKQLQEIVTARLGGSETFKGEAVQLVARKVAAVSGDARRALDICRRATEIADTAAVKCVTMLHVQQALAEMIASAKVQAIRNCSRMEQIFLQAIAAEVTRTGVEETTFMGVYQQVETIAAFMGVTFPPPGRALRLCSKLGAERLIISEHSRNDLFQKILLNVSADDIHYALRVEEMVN

[3] = target: T2, Drosophila ORC1–5 (ORC lacking Orc6), purified, 6×His-Orc1 and MBP–Orc4 (Drosophila melanogaster, UniProt O16810 1-924; Q24168 1-618; Q7K2L1 1-721; Q9W102 1-459; Q24169 1-460); assay: fluorescence polarisation; fluorescence anisotropy, apparent Kd; 30 nM Orc6 N-terminally labelled with Alexa Fluor 488, ORC1–5 in twofold dilutions from 1 µM to 122 pM; 50 mM Tris HCl pH 7.8, 300 mM KCl, 5% glycerol, 1 mM DTT, 0.1 mg/ml BSA; 1 hr on ice; single-site fit with ligand depletion; conditions: both partners purified
T2 construct: Drosophila Orc1; Drosophila Orc2, untagged; Drosophila Orc3, untagged; Drosophila Orc4; Drosophila Orc5, untagged; source: High5 cells co-infected with five baculoviruses, purified (Ni, amylose, gel filtration; TEV step omitted); not shown: 6×His, N-terminal, kept; MBP, N-terminal, kept; copies: + + + +

[4] = target: T3, Drosophila ORC1–5 in MBP-tagged ORC for EM (6×His-Orc1, other subunits untagged) (Drosophila melanogaster, UniProt O16810 1-924; Q24168 1-618; Q7K2L1 1-721; Q9W102 1-459; Q24169 1-460); assay: co-purification over several chromatography steps; MBP–Orc6 187–257 co-expressed with 6×His-Orc1 and untagged Orc2–Orc5 in High5 cells; Ni affinity, amylose affinity and gel filtration, TEV step omitted; conditions: partners not purified
T3 construct: Drosophila Orc1; Drosophila Orc2, untagged; Drosophila Orc3, untagged; Drosophila Orc4, untagged; Drosophila Orc5, untagged; source: High5 cells co-infected, co-purified with MBP–Orc6 187–257 (Ni, amylose, gel filtration; TEV step omitted); not shown: 6×His, N-terminal, kept; copies: + + + +

Molecule | binding result [2] | other results
Drosophila Orc6-Y225S, N-terminal 6×His (from UniProt Q9Y1B2 1-257) (natural protein) |  | fold reduction of affinity against wild type Orc6 [1]: > 100 fold
Drosophila Orc3 in untagged recombinant ORC (natural protein, Drosophila melanogaster, UniProt Q7K2L1 1-721, looked up, Drosophila Orc3, no purification tag; source: High5 cells co-infected with six baculoviruses, co-purified (Ni, amylose, TEV, gel filtration)) MDPTISVSKGCFVYKNGATRAGKKAASKRKRPAAESSSLLGKEVVQQPFYEEYRKAWNQINDHIADLQHRSYARTLEQLVDFVVGQAERDTPDEVLPTAALLTGINQPDHLSQFTALTQRLHAQRAAMVCVLQSRDCATLKAAVETLVFGLVEDNAEVEQMEDEDEDEDGAERDRKRLRRSQCTMKQLKSWYTNNFDSEQKRRQLVVILPDFECFNASVLQDLILILSAHCGSLPFVLVLGVATAMTAVHGTLPYHVSSKIRLRVFQTQAAPTGLNEVLDKVLLSPKYAFHLSGKTFKFLTHIFLYYDFSIHGFIQGFKYCLMEHFFGGNAFALCTDYSKALGRIKQLTHEDMETIRRLPSFRPYVEQINDCKRIIAVLTDDDYLKKKLPQLLRDCLLHFLLFRCSLEFLTELVGDLPRCPLGKLRRELYVNCLNRAIISTPEYKECLQMLSFLSKDEFVAKVNRALERTEQFLVEEIAPLELGEACTAVLRPKLEAIRLAVDEVVKATMATITTTSPNETRQATDHLTPVASRQELKDQLLQRSKEDKMRHQLNTPTTQFGRALQKTLQLIETQIVQDHLRALQDAPPIHELFVFSDIATVRRNIIGAPRAALHTALNNPHFYMQCKCCELQDQSLLVGTLPDLSVVYKLHLECGRMINLFDWLQAFRSVVSDSDHEEVAQEQIDPQIQARFTRAVAELQFLGYIKMSKRKTDHATRLTW | binds | 
Drosophila Orc2 in untagged recombinant ORC (natural protein, Drosophila melanogaster, UniProt Q24168 1-618, looked up, Drosophila Orc2, no purification tag; source: High5 cells co-infected with six baculoviruses, co-purified (Ni, amylose, TEV, gel filtration)) MSASNKGGYKTPRKENLMSIENLTNSEEESEDLNTAMVGNAVESQPKVTSRRSTRRPSPTKKYQAYQKESNGKGQEERIVVNYVEMSDERSSDAEDQEEEESIEESENAARPAAKDLHLIQSEYNVAGTSMFGFNTPKKRDAMALAALNATPCTPKTPKTPRLGVKTPDTKRKKSMDQPKTPAHVRTRVKKQIAKIVADSDEDFSGDESDFRPSDEESSSSSSSSDAGNSSDNDAADDEPKTPSRARRAIVVPVLPKTPSAARLRQSARAKKSNEFVPESDGYFHSHASSKILTSDHTLDRLKNPRLAADRVFSLLSEIKTSAEHEGSINAIMEEYRSYFPKWMCILNEGFNILLYGLGSKHQLLQSFHREVLHKQTVLVVNGFFPSLTIKDMLDSITSDILDAGISPANPHEAVDMIEEEFALIPETHLFLIVHNLDGAMLRNVKAQAILSRLARIPNIHLLASIDHINTPLLWDQGKLCSFNFSWWDCTTMLPYTNETAFENSLLVQNSGELALSSMRSVFSSLTTNSRGIYMLIVKYQLKNKGNATYQGMPFRDLYSSCREAFLVSSDLALRAQLTEFLDHKLVKSKRSVDGSEQLTIPIDGALLQQFLEEQEKK | binds | 
Drosophila Orc6 C-terminal domain (187–257), N-terminal 6×His (domain or fragment, Drosophila melanogaster, UniProt Q9Y1B2 187-257, looked up, Alexa Fluor 488 on the N-terminus (only in the fluorescence anisotropy assay), Drosophila Orc6, residues 187-257 (C-terminal domain); not detected in Western blots of whole-cell extract, but seen in the pull-downs; also called Orc6 187–257; Orc6 CTD; source: High5 cells (baculovirus): in lysate of co-infected cells; also purified (HisTrap, gel filtration); not shown: 6×His, N-terminal, kept) KESKVPSSTDMEGKLKENQNENIKGHEAKKAHKPPPEDYEIWKARMLAKAQAKLKELEASQSHMDSQLLEA |  | Kd [3]: 4.8 ± 0.6 nM
Drosophila MBP–Orc6 187–257 (domain or fragment, Drosophila melanogaster, UniProt Q9Y1B2 187-257, looked up, Drosophila Orc6, residues 187-257; also called N-terminally MBP-tagged C-terminal domain of Orc6 (amino acids 187–257); MBP-fusion of the C-terminal domain of Orc6; source: High5 cells co-infected with the ORC1–5 subunits, co-purified (Ni, amylose, gel filtration); not shown: MBP, N-terminal, kept) KESKVPSSTDMEGKLKENQNENIKGHEAKKAHKPPPEDYEIWKARMLAKAQAKLKELEASQSHMDSQLLEA |  | binding result [4]: binds
Drosophila Orc6, full-length (1–257), N-terminal 6×His (natural protein, Drosophila melanogaster, UniProt Q9Y1B2 1-257, looked up, Alexa Fluor 488 on the N-terminus (only in the fluorescence anisotropy assay), Drosophila Orc6, residues 1-257; also called wild-type Orc6; Orc6 WT; source: High5 cells (baculovirus): in lysate of co-infected cells; also purified (HisTrap, gel filtration); not shown: 6×His, N-terminal, kept) MTTLIEQLITKMGLREEPNVLEKTTELVRLLELRSTNVPLQINEYGKIVLCADLASCMIGIAFDKEQALKLSGLRKSQYLNNKRMFEKLLDLNKLASVNDICVQLGLNEVARKAEELMTLFKGVAATEDMGTDTSHPQYATMAVFQACRLLKKKVSKSKLMPFSNLRPSQFQLLEQQWERMIAKHHKESKVPSSTDMEGKLKENQNENIKGHEAKKAHKPPPEDYEIWKARMLAKAQAKLKELEASQSHMDSQLLEA |  | Kd [3]: 5 ± 0.7 nM
Drosophila Orc6 in untagged recombinant ORC (natural protein, Drosophila melanogaster, UniProt Q9Y1B2 1-257, looked up, Drosophila Orc6, no purification tag; source: High5 cells co-infected with six baculoviruses, co-purified (Ni, amylose, TEV, gel filtration)) MTTLIEQLITKMGLREEPNVLEKTTELVRLLELRSTNVPLQINEYGKIVLCADLASCMIGIAFDKEQALKLSGLRKSQYLNNKRMFEKLLDLNKLASVNDICVQLGLNEVARKAEELMTLFKGVAATEDMGTDTSHPQYATMAVFQACRLLKKKVSKSKLMPFSNLRPSQFQLLEQQWERMIAKHHKESKVPSSTDMEGKLKENQNENIKGHEAKKAHKPPPEDYEIWKARMLAKAQAKLKELEASQSHMDSQLLEA | binds | 
Drosophila Orc4 in untagged recombinant ORC (natural protein, Drosophila melanogaster, UniProt Q9W102 1-459, looked up, Drosophila Orc4; source: High5 cells co-infected with six baculoviruses, co-purified (Ni, amylose, TEV, gel filtration); not shown: MBP, N-terminal, cleaved) MPEADRELVSIRRFLKERLQRDYTTLRGYAKERSNVRLLLQRTAEMGESNSLLLLGPRGSGKTTLINSVLADLLPNKSFGENTLIVHLDGNLHTDDRVALKSITVQMQLENAADGKVFGSFAENLAFLLQCLKAGGKHSKSVIFILEEFDLFCAHHNQTLLYNLFDVSQSAQAPICVLGVTCRLDVIELLEKRVKSRFSHRQVFLFPSLRRFEDYVDLCRDLLSLPTGNSLLLAAEKIYNLQNIQSGALYFSRNHFDPGEYGFSPRLRDAWNKQICKVLATQQARSTLQALHDFDISEAYLKNFLFRLVAHLRPQSPHITAEKMAAVGSQFEGDDKIELLCGLSVLELCLIIAIKHHSQIYDRDSFNFEIIYARFSKFAKVSTTMQAVERSIVLKAFEHLRIAELIMPLTGGAGGGVGKVQKEFEMHKLALTYSQIHHCMQRYQALPTEVAQWAQSSLI | binds | 
Drosophila Orc5 in untagged recombinant ORC (natural protein, Drosophila melanogaster, UniProt Q24169 1-460, looked up, Drosophila Orc5; the methods list Orc4 twice and leave Orc5 out of the untagged subunits; source: High5 cells co-infected with six baculoviruses, co-purified (Ni, amylose, TEV, gel filtration)) MEAICSSLEPLFPCREAAIETLGELIGDSSETYPSAIYLFGHSGTGKTALTRAFLKECGKRQNVRTAHLNAIECYTTKIMLEILLDSLAPDQGDALKVDNMLDFVEQLRRQAATRVEDQGFLIAVDNAERLRDMDANVLPVLLRLQELTNLNLCVILLSQLPFEKFYNKTGLSEIVCLHLAQYNKAETQRILGSDFQQVRNQLLEQFAQDKKRLEICQEAVTEDFYNNYLNLFLSVFYKACRDVPELQLTARKCLSTYLEPVLDGTVDATDISRLWRHIAGPLRSALTQIYMRIEKPAEEVEDFTAIEDQSVRKLAQSLELPYYAKFLLIAAFLASHNAAKQDKRLFVKHHGKQRKRMQTVNARAKTTEKMSTTLGPKSFSIDRLLAIFYAILEEKVGLTCNLLSQISTLVHLNLLSFVSGEQNIMEGSARLQCTIGLEFVLQIGKVVGFNVRQYLCDFM | binds | 
